The results in this text go back to PMC3752404 (Molecular cell, 2011).

Series [1] concerns the target Swi6 (wild type, tagged: N-terminal 6xHis and C-terminal FLAG) (S. pombe) (UniProt P40381). The series can be described thus: equilibrium competition with a fluorescently labeled DNA.
Series [2] has as its target MLA methylated (H3Kc9me3) mononucleosome on the 147 bp 601 sequence. Briefly: AUC.
In series [3] the target is H3K9 2N(L15) dinucleosome. Briefly: native gel or EMSA.
Series [4] concerns the target H3Kc9me3 12N(L15) nucleosome array. The series can be described thus: native gel or EMSA.
Series [5] addresses H3Kc9me3 2N(L47) dinucleosome. Briefly: native gel or EMSA.
In series [6] the target is H3Kc9me3 12N(L47) nucleosome array. The series can be described thus: native gel or EMSA.
For series [7], the target named is MLA methylated (H3Kc9me3) mononucleosome on the 147 bp 601 sequence. The series can be described thus: native gel or EMSA.
The target in series [8] is H3Kc9me3 2N(L15) dinucleosome. Briefly: native gel or EMSA.
Series [9] concerns the target H3K9 2N(L47) dinucleosome. Briefly: native gel or EMSA.
For series [10], the target named is nucleosomes and arrays.
For series [11], the target named is Swi6 chromoshadow domain (WT CSD) (S. pombe).
Series [12] has the same target. The series can be described thus: ITC.
The target in series [13] is H3K9me3 tail peptide. Briefly: fluorescence polarisation.
Series [14] deals with the molecule itself. Briefly: SEC-MALS.
Series [15] deals with the molecule itself. Briefly: cross-linking.
Series [16] deals with the molecule itself. Briefly: SEC-MALS + cross-linking.
Series [17] deals with the molecule itself. The series can be described thus: SEC.

Changes are numbered by the printed parent chain. Numbers in names are those of the source. Where “and” joins values, the source holds several entries; their conditions need not be identical. Equal entries are not always repeated.

In series [1], “MLA methylated (H3Kc9me3) mononucleosome on the 147 bp 601 sequence (complex)” gave a fold specificity over H3K9 nucleosomes of 5 fold.

In [2], “Swi6 (wild type, tagged: N-terminal 6xHis and C-terminal FLAG) (from UniProt P40381 1-328) (natural protein)” returned a stoichiometry N of 4. Also, the K1/2 is 156 nM in [3], 12 nM in [5], 62 nM in [8] and 32 nM in [9]. In addition, the fold specificity over the H3K9 12N(L15) array (ratio of K1/2) in series [4] is 25 fold. In [6], the fold specificity over the H3K9 12N(L47) array (ratio of K1/2) amounted to 5.4 fold. Further, in series [7], the fold preference over H3K9 nucleosomes (ratio of K1/2) was determined as 5 fold.

“Swi6 (wild type, untagged) (from UniProt P40381 1-328) (natural protein)” had a fold increase of affinity on removing the tags in [10] of 2.5 fold.

In [2], “Swi6 L315D (from UniProt P40381 1-328) (natural protein)” gave a stoichiometry N of 2. Moreover, the fold discrimination between methylated and unmethylated arrays in [4] was 2 to 3 fold.

As to “Swi6 V82E-Y131W (from UniProt P40381 1-328) (natural protein)”, in [4], the fold increase of specificity compared to WT Swi6 was 7 fold and the fold specificity over the H3K9 12N(L15) array is 130 fold.

For “Swi6 chromoshadow domain (WT CSD) (domain or fragment)”, the stoichiometry N in [11] came out at 2. The Kd in series [12] was below 17 nM.

B1: Swi6 V82E (natural protein, S. pombe, UniProt P40381 1-328, looked up)
chain: MKKGGVRSYRRSSTSKRSVIDDDSEPELPSMTKEAIASHKADSGSSDNEVESDHESKSSSKKLKENAKEEEGGEEEEEDEYEVEKVLKHRMARKGGGYEYLLKWEGYDDPSDNTWSSEADCSGCKQLIEAYWNEHGGRPEPSKRKRTARPKKPEAKEPSPKSRKTDEDKHDKDSNEKIEDVNEKTIKFADKSQEEFNENGPPSGQPNGHIESDNESKSPSQKESNESEDIQIAETPSNVTPKKKPSPEVPKLPDNRELTVKQVENYDSWEDLVSSIDTIERKDDGTLEIYLTWKNGAISHHPSTITNKKCPQKMLQFYESHLTFRENE
B1 registered a fold increase of binding in series [13] of 3 fold. The binding result in series [14] was “binds”.

B2: Swi6 (wild type, tagged: N-terminal 6xHis and C-terminal FLAG) (natural protein, S. pombe, UniProt P40381 1-328, looked up)
chain: B1 chain with E82V
Turning to B2, the “stoichiometry N” value was 2 and > 2 in series [15]; 8 in [16].

B3: Swi6 Y131W (natural protein, S. pombe, UniProt P40381 1-328, looked up)
chain: B1 chain with E82V, Y131W
As to B3, the “fold tetramer formation over WT” value in series [14] was around 1.6 fold.

B4: Swi6 V82E-Y131W (natural protein, S. pombe, UniProt P40381 1-328, looked up)
chain: B1 chain with Y131W
B4: in series [14], the “fold tetramer formation over WT” value was around 3.5 fold; the “stoichiometry N” value is 4 and 8.

B5: Swi6 chromodomain (CD, aa 81-137) (domain or fragment, S. pombe, UniProt P40381 81-137, looked up)
chain: YVVEKVLKHRMARKGGGYEYLLKWEGYDDPSDNTWSSEADCSGCKQLIEAYWNEHGG
As to B5, in [17], the “stoichiometry N” value is 2.
